Test results as given in US20150017171A1 (CHINA SYNTHETIC RUBBER, published 2015).

T1: recombinant human PLVAP51-442 protein (extracellular domain, His tag removed by thrombin) (human, UniProt Q9BX97 51-442)
T1 construct: also called recombinant PLVAP protein; recombinant PLVAP
T1 sequence: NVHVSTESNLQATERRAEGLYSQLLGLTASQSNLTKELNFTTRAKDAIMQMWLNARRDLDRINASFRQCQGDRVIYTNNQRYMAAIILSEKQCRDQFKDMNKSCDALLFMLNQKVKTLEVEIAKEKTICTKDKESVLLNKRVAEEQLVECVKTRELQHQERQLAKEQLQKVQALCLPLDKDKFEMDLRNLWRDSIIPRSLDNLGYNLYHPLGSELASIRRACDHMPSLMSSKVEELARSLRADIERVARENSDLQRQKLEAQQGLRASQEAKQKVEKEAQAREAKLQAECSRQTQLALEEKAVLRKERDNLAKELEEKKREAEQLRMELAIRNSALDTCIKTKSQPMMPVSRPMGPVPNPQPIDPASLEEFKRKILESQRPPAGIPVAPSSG

B1: humanized KFCC-GY4 antibody CSR01-VH5/VK2 (antibody, human IgG4, V domains shown)
VH: EVQLVQSGAEVKKPGASVKVSCTASGFNIKDYYIHWVRQAPGQGLEWIGWIDPENGDIEYAPKFQGRATITADTSTDTAYMELSSLRSEDTAVYYCLYQEGSWGQGTTVTVSS
VL: DVVMTQSPLSLPVTLGQPASISCKSSQSLLNSDGKTYLNWLQQRPGQSPRRLIYLVSKLDSGVPDRFTGSGSGTDFTLKISRVEAEDVGVYYCWQGTHFPFTFGGGTKVEIKR
notes: also called VH5/VK2 (GY4 variant); CSR01-VH5NK2
B2: humanized KFCC-GY4 antibody CSR01-VH4/VK3 (antibody, human IgG4, V domains shown)
VH: EVQLVQSGAEVKKPGASVKVSCTASGFNIKDYYIHWVRQAPGQGLEWIGWIDPENGDIEYAPKFQGRATITADTSTDTAYMEFSSLRSEDTAVYYCLYQEGSWGQGTTVTVSS
VL: DVVMTQSPLSLPVTLGQPASISCKSSQSLLNSDGKTYLNWLQQRPGQSPRRLIYLVSKLDSGVPDRFSGSGSGTDFTLKISRVEAEDVGVYYCWQGTHFPFTFGGGTKVEIKR
notes: also called VH4/VK3 (GY4 variant); CSR01-VH4NK3
B3: humanized KFCC-GY4 antibody CSR01-VH5/VK3 (antibody, human IgG4, V domains shown)
VH: EVQLVQSGAEVKKPGASVKVSCTASGFNIKDYYIHWVRQAPGQGLEWIGWIDPENGDIEYAPKFQGRATITADTSTDTAYMELSSLRSEDTAVYYCLYQEGSWGQGTTVTVSS
VL: DVVMTQSPLSLPVTLGQPASISCKSSQSLLNSDGKTYLNWLQQRPGQSPRRLIYLVSKLDSGVPDRFSGSGSGTDFTLKISRVEAEDVGVYYCWQGTHFPFTFGGGTKVEIKR
notes: also called VH5/VK3 (GY4 variant); VH5/VK3 IgG4
B4: humanized KFCC-GY4 antibody CSR01-VH4/VK2 (antibody, human IgG4, V domains shown)
VH: EVQLVQSGAEVKKPGASVKVSCTASGFNIKDYYIHWVRQAPGQGLEWIGWIDPENGDIEYAPKFQGRATITADTSTDTAYMEFSSLRSEDTAVYYCLYQEGSWGQGTTVTVSS
VL: DVVMTQSPLSLPVTLGQPASISCKSSQSLLNSDGKTYLNWLQQRPGQSPRRLIYLVSKLDSGVPDRFTGSGSGTDFTLKISRVEAEDVGVYYCWQGTHFPFTFGGGTKVEIKR
notes: also called VH4/VK2 (GY4 variant); CSR01-VH4NK2
B5: humanized KFCC-GY4 antibody CSR01-VH5/VK1 (antibody, human IgG4, V domains shown)
VH: EVQLVQSGAEVKKPGASVKVSCTASGFNIKDYYIHWVRQAPGQGLEWIGWIDPENGDIEYAPKFQGRATITADTSTDTAYMELSSLRSEDTAVYYCLYQEGSWGQGTTVTVSS
VL: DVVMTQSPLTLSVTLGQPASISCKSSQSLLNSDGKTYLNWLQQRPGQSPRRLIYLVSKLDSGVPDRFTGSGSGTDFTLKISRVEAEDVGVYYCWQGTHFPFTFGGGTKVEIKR
notes: also called VH5/VK1 (GY4 variant); CSR01-VH5NK1
B6: humanized KFCC-GY5 antibody CSR02-VH4/VK2 (antibody, human IgG4, V domains shown)
VH: QVQLVQSGSELKKPGASVKVSCKASGYTFTSNYINWVRQAPGQGLEWIGNIYPSDGFTNYNQKFKDRVTITVDKSTSTAYMELSSLRSEDTAVYYCTRNFDVWGQGTTVTVSS
VL: DVVMTQSPLSLPVTLGQPASISCRSSQSLVHSNGNTYLQWYLQKPGQSPQLLIYTVSNRFSGVPDRFSGSGSGTDFTLKISRVEAEDVGVYFCSQSTHVPFTFGQGTKLEIKR
notes: also called VH4/VK2 (GY5 variant); CSR02-VH4NK2
B7: humanized KFCC-GY5 antibody CSR02-VH5/VK3 (antibody, human IgG4, V domains shown)
VH: QVQLVQSGSELKKPGASVKVSCKASGYTFTSNYINWVRQAPGQGLEWMGNIYPSDGFTNYNQKFKDRVTITVDKSTSTAYMELSSLRSEDTAVYYCTRNFDVWGQGTTVTVSS
VL: DVVMTQSPLSLPVTLGQPASISCRSSQSLVHSNGNTYLQWYLQKPGQSPQLLIYTVSNRFSGVPDRFSGSGSGPDFTLKISRVEAEDVGVYYCSQSTHVPFTFGQGTKLEIKR
notes: also called VH5/VK3 (GY5 variant); CSR02-VH5NK3
B8: humanized KFCC-GY5 antibody CSR02-VH5/VK2 (antibody, human IgG4, V domains shown)
VH: QVQLVQSGSELKKPGASVKVSCKASGYTFTSNYINWVRQAPGQGLEWMGNIYPSDGFTNYNQKFKDRVTITVDKSTSTAYMELSSLRSEDTAVYYCTRNFDVWGQGTTVTVSS
VL: DVVMTQSPLSLPVTLGQPASISCRSSQSLVHSNGNTYLQWYLQKPGQSPQLLIYTVSNRFSGVPDRFSGSGSGTDFTLKISRVEAEDVGVYFCSQSTHVPFTFGQGTKLEIKR
notes: also called VH5/VK2 (GY5 variant); CSR02-VH5NK2

target: T1, recombinant human PLVAP51-442 protein …; test: competition ELISA on coated recombinant PLVAP; competitor biotinylated murine KFCC-GY4
Description: (§1) The binding of KFCC-GY4 and KFCC-GY5 human antibody variants to recombinant PLVAP was assessed in a competition ELISA. Either a dilution series of variant or control antibody from 30 μg/m to 0.014 μg/m (final concentration) was premixed with a constant concentration of biotinylated murine KFCC-GY4 (0.3 μg/ml, final concentration) or a dilution series of variant or control antibody from 10 μg/m to 0.004 μg/ml (final concentration) was premixed with a constant concentration of biotinylated murine KFCC-GY5 (0.1 μg/ml, final concentration) before incubating for 1 hour at room temperature on a Nunc Immuno MaxiSorp 96 well flat bottom microtitre plate (Fisher Catalogue No. DIS-971-030J) precoated with 1 μg/m recombinant “protein P” diluted in PBS. The binding of the biotinylated mAb was determined by detection with streptavidin-HRP and TMB substrate. After stopping the reaction with 3M HCl, absorbance was measured at 450 nm on a Dynex Technologies MRX TC II plate reader and the binding curves of the test antibodies compared against the mouse reference standard.
The five lead variants of IgG4-GY4 and murine KFCC-GY4 antibodies have very similar binding profiles (FIG. 48). All of the lead variants shown are within two-fold of the original murine monoclonal antibody.

Q: Which IC50 does the source give for B1 here?
A: 1.91 µg/mL

Q: What about the “IC50 (ratio compared to GY4 mAb)” value of the same binder?
A: 1.05

Q: What does the source list for B2?
A: IC50: 2.94 µg/mL; IC50 (ratio compared to GY4 mAb): 1.61

Q: How did the IC50 turn out when B3 was run?
A: 2.82 µg/mL

Q: What about the “IC50 (ratio compared to GY4 mAb)” value of the same binder?
A: 1.55

Q: What does the source list for B4?
A: IC50: 2.53 µg/mL; IC50 (ratio compared to GY4 mAb): 1.39

Q: What does the source list for B5?
A: IC50: 2.18 µg/mL; IC50 (ratio compared to GY4 mAb): 1.2

target: T1, recombinant human PLVAP51-442 protein …; test: competition ELISA on coated recombinant PLVAP; competitor biotinylated murine KFCC-GY5
Description: as §1
Similarly, the four lead variants of IgG4-GY5 and murine KFCC-GY5 antibodies have very similar binding profiles (FIG. 49). All of the lead variants shown are within two-fold of the original murine monoclonal antibody.

Q: How did the IC50 turn out when B6 was run?
A: 0.56 µg/mL

Q: What about the “IC50 (ratio compared to GY5 mAb)” value of the same binder?
A: 1.47

Q: B7 was tested. Which IC50 did it give?
A: 0.41 µg/mL

Q: And the “IC50 (ratio compared to GY5 mAb)” value?
A: 1.08

Q: With B8 as the binder, how does the IC50 read?
A: 0.6 µg/mL

Q: And the “IC50 (ratio compared to GY5 mAb)” value?
A: 1.58
